The values that follow come from article PMC8265671.

The target in the assay is FLAG-tagged TgMLC1 C(8,11)S (Toxoplasma gondii). In words: co-IP; anti-FLAG M2 affinity resin, Triton X-100 extract of parasites in FLAG lysis buffer (10 mM imidazole pH 7.4, 300 mM NaCl, 1 mM EGTA, 5 mM MgCl2, 1% TX-100, 2 mM DTT, 2 mM ATP), overnight at 4°C, eluted with FLAG peptide, quantitative Western blotting.

“TgMyoA (Toxoplasma gondii class XIVa myosin heavy chain) (from UniProt O00934 1-831)” came in with a fold increase in the amount recovered, against WT TgMLC1 of 2 to 3 fold. The substance “TgELC1 (Toxoplasma gondii essential light chain 1) (natural protein)” registered a fold increase in the amount recovered, against WT TgMLC1 of 2 to 3 fold.
